Data as given in publication PMC3093405, “A Motif Unique to the Human Dead-Box Protein DDX3 Is Important for Nucleic Acid Binding, ATP Hydrolysis, RNA/DNA Unwinding and HIV-1 Replication”.

Target: DDX3wt (Homo sapiens, UniProt O00571 1-662)
Experiment: EMSA; no ATP; EMSA: on ice, protein buffer 25 mM Tris-HCl pH 7.5, 0.5 mM DTT, 20% glycerol, 100 mM NaCl plus 5x binding buffer (10% glycerol, 5 mM MgCl2, 2.5 mM EDTA pH 8, 50 mM NaCl, 50 mM Tris-HCl pH 7.5, 10 mM DTT), 0.05 pmol oligo. Filter binding: 10 mM Hepes pH 7.2, 100 mM KCl, 3 mM MgCl2, 5% glycerol, 1 mM DTT, 50 µg/ml salmon sperm DNA, 50 nM dsDNA, 24°C
Settings: protein: recombinant; tags: N-terminal ~3 kDa peptide with 6xHis; C-terminal KQGCFGG; label: 5' 6-FAM

Chain of DDX3wt (O00571 whole entry): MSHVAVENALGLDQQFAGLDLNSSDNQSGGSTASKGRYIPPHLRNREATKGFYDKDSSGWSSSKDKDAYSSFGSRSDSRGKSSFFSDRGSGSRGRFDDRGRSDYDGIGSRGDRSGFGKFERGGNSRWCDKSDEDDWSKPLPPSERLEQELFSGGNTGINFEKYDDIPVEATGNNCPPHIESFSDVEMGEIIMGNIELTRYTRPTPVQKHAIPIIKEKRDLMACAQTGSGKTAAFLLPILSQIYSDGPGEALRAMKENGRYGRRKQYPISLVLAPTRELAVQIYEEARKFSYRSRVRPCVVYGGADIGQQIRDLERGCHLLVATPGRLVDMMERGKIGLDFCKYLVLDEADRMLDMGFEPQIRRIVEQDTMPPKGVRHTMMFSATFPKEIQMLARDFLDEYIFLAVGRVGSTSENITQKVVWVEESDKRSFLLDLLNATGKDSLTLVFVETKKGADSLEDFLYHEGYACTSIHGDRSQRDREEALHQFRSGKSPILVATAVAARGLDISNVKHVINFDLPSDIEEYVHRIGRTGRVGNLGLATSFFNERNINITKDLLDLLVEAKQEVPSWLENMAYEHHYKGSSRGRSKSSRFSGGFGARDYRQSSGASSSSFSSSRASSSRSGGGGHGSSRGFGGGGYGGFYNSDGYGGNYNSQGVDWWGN

CTCAACTCAACCCTTCAT (ssDNA) [ssDNA (6-FAM d18mer)]: binds.

CCCAAGAACCCAAGGAAC (ssRNA) [ssRNA (6-FAM r18mer)]: binds.
